Experimental data reported in patent publication US20250340630A1 (SICHUAN KELUN BIOTECH BIOPHARMACEUTICAL, published 2025).
Read-outs that look alike come from different tables or passages of the source.

How the values were obtained:
human Claudin18.2 [1] = biological target: T1, human Claudin18.2 (human, UniProt P56856-2 1-261); test: cellular ELISA on fixed L929-Claudin 18.2 cells
T1 construct: whole, on cells; Four-transmembrane protein, always presented on cells (transfected lines or NUGC-4 with endogenous expression); also called CLDN18.2
Description: (§1) Human Claudin18.2 is a four transmembrane protein and has a complex structure. Cellular ELISA was thus carried out to maintain the structure of Claudin18.2. […] The cells were resuspended and adjusted to 2×10⁵/mL and 100 μL of the resuspension was plated into 96 well plate and incubated overnight at 37° C. The next day, the media was removed, and the plate was washed with PBS once. 100 μL/well 4% formaldehyde was added to the plate. After 30 min of incubation at room temperature, formaldehyde was removed, followed by washing twice with PBS. Blocking buffer (PBS containing 2% BSA) was then added to the plate at 100 μL/well, and incubated at 37° C. for 2 h. After removal of blocking buffer, 100 μL/well of serially diluted antibodies (starting from 1 μM, with 4-fold dilution, for a total of 11 concentrations) were added to the corresponding wells, which were incubated at 37° C. for 2h afterwards. The plate was washed with 250 μL PBST for 5 times, and was allowed to stand for 2 min each time. […] The plate was incubated at 37° C. for 1 h and washed with 250 μL PBST 6 times, wherein the plate was allowed to stand for 2 min each time. 100 μL/well of TMB solution (Thermo, 34029) was added. […] The absorbance at 450 nm was read on a plate reader (MD, SpectraMax M2) and the results were subjected to curve fitting by Graphpad Prism.

human Claudin18.2 [2] = biological target: T1, human Claudin18.2; test: cellular ELISA on fixed L929-Claudin 18.2 cells; remark: listed apart in the source
Description: as §1

human Claudin18.2 [3] = biological target: T1, human Claudin18.2; test: cell-based or functional assay
human Claudin18.2 [4] = biological target: T1, human Claudin18.2; test: cell-based or functional assay; remark: listed apart in the source
human Claudin18.2 [5] = biological target: T1, human Claudin18.2; test: flow cytometry on HEK293T-Claudin 18.2 cells
Description: HEK293T-Claudin 18.2 cells were detached and centrifuged, followed by washing for twice with PBS. And then the cells were resuspended in PBS containing 1% BSA and were plated into 96-well tip bottom plate at 300000 cells per well in a volume of 50 μl for 20 wells in total. […] Human IgG was served as negative control. The reactions were mixed well and incubated for 1 h at 4° C. in the dark. Following by three times of washing with PBS, the FITC-labelled anti-human Fc secondary antibody (Biolegend, 409322) was added and incubated for 0.5h in the dark. Detection was performed by flow cytometry (Beckman, Cytoflex) after washing for three times with PBS.

human Claudin18.2 [6] = biological target: T1, human Claudin18.2; test: cell-based or functional assay; remark: listed apart in the source
human Claudin18.2 [7] = biological target: T1, human Claudin18.2; test: cell-based or functional assay; remark: listed apart in the source
human Claudin18.2 [8] = biological target: T1, human Claudin18.2; test: flow cytometry on Ba/F3-Claudin18.2 cells
human Claudin18.2 [9] = biological target: T1, human Claudin18.2; test: cellular ELISA on NUGC-4 cells (endogenous human Claudin18.2)
Description: The cells were resuspended and adjusted to 2×10⁵/mL and 100 μL of the resuspension was plated into 96 well plate and incubated overnight at 37° C. The next day, the media was removed, and the plate was washed with PBS once. 100 μL/well 4% formaldehyde was added to the plate. After 30 min of incubation at room temperature, formaldehyde was removed, followed by washing twice with PBS. Blocking buffer (PBS containing 2% BSA) was then added to the plate at 100 μL/well, and incubated at 37° C. for 2 h. After removal of blocking buffer, 100 μL/well of serially diluted antibodies (starting from 1 μM, with 4-fold dilution, for a total of 11 concentrations) were added to the corresponding wells, which were incubated at 37° C. for 2h afterwards. The plate was washed with 250 μL PBST for 5 times, and was allowed to stand for 2 min each time. […] The plate was incubated at 37° C. for 1 h and washed with 250 μL PBST 6 times, wherein the plate was allowed to stand for 2 min each time. 100 μL/well of TMB solution (Thermo, 34029) was added. The reactions were incubated at 37° C. for 20 min and stopped with 50 μL 2 mol/L H₂SO₄. The absorbance at 450 nm was read on a plate reader (MD, SpectraMax M2) and the results were subjected to curve fitting by Graphpad Prism.

human Claudin18.1 [10] = biological target: T2, human Claudin18.1 (human, UniProt P56856 1-261); test: flow cytometry, HEK293T-human Claudin 18.1 cells compared with HEK293T cells
T2 construct: whole, on cells; Presented on transfected cells; also called CLDN18.1
Description: The specificity of candidate antibodies was detected by FACS. […] After washing twice with PBS, the cells were resuspended with PBS containing 1% BSA. 300,000 cells for each cell line were added with the candidate antibodies at a final concentration of 1000 nM, mixed well, and incubated for 1 h at 4° C., protected from light. Then the cells were washed for three times with PBS and FITC-labeled anti-human Fc secondary antibody (BioLegend, 409322) was added, followed by 0.5h of incubation at 4° C. in the dark. Detection was performed by flow cytometry (Beckman, Cytoflex) after washing with PBS for three times.

human Claudin18.2 [11] = biological target: T1, human Claudin18.2; test: flow cytometry (IntelliCyt) on Ba/F3-Claudin18.2 cells
Description: In order to evaluate the anti-Claudin18.2 humanized antibodies, codon optimized cDNAs of the heavy chains and the light chains of the candidate humanized antibodies from Example 6 were synthesized and ligated into pcDNA3.4 (by Nanjing Genscript Biotech Corporation). Expi293F cells (purchased from Thermo Incorporation) were co-transfected with pcDNA3.4 coding the heavy chain and light chain of each antibody. The antibodies were purified from the supernatant using protein A (MabSelect SuRe, GE). The affinity of the humanized antibodies to Claudin18.2 was determined using Ba/F3-Claudin18.2 cells which over-expressed human Claudin18.2. Ba/F3-Claudin18.2 cells (60000 in 10 ul buffer) were incubated with purified humanized antibodies on ice for 30 min, followed by washing with buffer (PBS+2% FBS) twice and addition of Alexa647-labeled goat-anti-human IgG Fc antibody (1:500 dilution). The cells were incubated on ice for another 30 min and analyzed by IntelliCyt.

human Claudin18.2 [12] = biological target: T1, human Claudin18.2; test: cellular ELISA on fixed L929-Claudin 18.2 cells; remark: listed apart in the source
Description: Human Claudin18.2 is a four transmembrane protein and has a complex structure. Cellular ELISA was thus carried out to maintain the structure of Claudin18.2. […] The cells were resuspended and adjusted to 2×10⁵/mL and 100 μL of the resuspension was plated into 96 well plate and incubated overnight at 37° C. The next day, the media was removed, and the plate was washed with PBS once. 100 μL/well 4% formaldehyde was added to the plate. After 30 min of incubation at room temperature, formaldehyde was removed, followed by washing twice with PBS. Blocking buffer (PBS containing 2% BSA) was then added to the plate at 100 μL/well, and incubated at 37° C. for 2 h. After removal of blocking buffer, 100 μL/well of serially diluted antibodies (starting from 1 μM, with 4-fold dilution, for a total of 11 concentrations) were added to the corresponding wells, which were incubated at 37° C. for 2h afterwards. The plate was washed with 250 μL PBST for 5 times, and was allowed to stand for 2 min each time. […] The plate was incubated at 37° C. for 1 h and washed with 250 μL PBST 6 times, wherein the plate was allowed to stand for 2 min each time. 100 μL/well of TMB solution (Thermo, 34029) was added. The reactions were incubated at 37° C. for 20 min and stopped with 50 μL 2 mol/L H₂SO₄. The absorbance at 450 nm was read on a plate reader (MD, SpectraMax M2) and the results were subjected to curve fitting by Graphpad Prism.

human Claudin18.2 [13] = biological target: T1, human Claudin18.2; test: cell-based or functional assay; remark: listed apart in the source
human Claudin18.2 [14] = biological target: T1, human Claudin18.2; test: flow cytometry on Ba/F3-Claudin18.2 cells, purified mouse antibody
Description: (§2) The affinity of the candidates to Claudin18.2 was measured using FACS. […] Ba/F3-Claudin18.1 and Ba/F3-Claudin18.2 cells were incubated with the purified mouse antibodies at various concentrations on ice for 30 min and mouse IgG was used as negative control (Thermo Fisher, Cat: 31903), followed by washing with FACS buffer (PBS+2% FBS) twice.

human Claudin18.1 [15] = biological target: T2, human Claudin18.1; test: flow cytometry on Ba/F3-Claudin18.1 cells
Description: as §2

Row | Binder | EC50 (human Claudin18.2 [1]) [nM] | EC50 (human Claudin18.2 [2]) [nM] | ADCC EC50 on HEK293T-Claudin 18.2 cells (NK92MI-CD16a, LDH) (human Claudin18.2 [3]) [µg/mL] | CDC EC50 on HEK293T-Claudin 18.2 cells (guinea pig serum, CellTiter-Glo) (human Claudin18.2 [4]) [µg/mL] | EC50 (human Claudin18.2 [5]) [nM] | ADCC EC50 on HEK293T-Claudin 18.2 cells (NK92MI-CD16a, LDH) (human Claudin18.2 [6]) [µg/mL] | ADCC EC50 on KATOIII-Claudin 18.2 cells (NK92MI-CD16a, LDH) (human Claudin18.2 [6]) [µg/mL] | ADCC EC50 on L929-Claudin 18.2 cells (NK92MI-CD16a, LDH) (human Claudin18.2 [6]) [µg/mL] | ADCC EC50 on NUGC-4 cells (NK92MI-CD16a, LDH) (human Claudin18.2 [6]) [µg/mL] | ADCC EC50, Ba/F3-Claudin18.2 target cells, NK-92MI_mCD16 effectors (human Claudin18.2 [7]) [µg/mL] | ADCC Max killing rate %, Ba/F3-Claudin18.2 target cells (human Claudin18.2 [7]) [%] | EC50 (human Claudin18.2 [9]) [nM] | binding result (human Claudin18.1 [10]) | EC50 (human Claudin18.2 [12]) [nM] | Max Signal Value (OD450) (human Claudin18.2 [12]) | other results
1 | IMAB362 (antibody, V domains shown) VH: QVQLQQPGAELVRPGASVKLSCKASGYTFTSYWINWVKQRPGQGLEWIGNIYPSDSYTNYNQKFKDKATLTVDKSSSTAYMQLSSPTSEDSAVYYCTRSWRGNSFDYWGQGTTLTVSS VL: DIVMTQSPSSLTVTAGEKVTMSCKSSQSLLNSGNQKNYLTWYQQKPGQPPKLLIYWASTRESGVPDRFTGSGSGTDFTLTISSVQAEDLAVYYCQNDYSYPFTFGSGTKLEIKR | 0.15 | 0.18 | 0.0577 | 3.32 | 8.22 | 0.0336 | 0.0101 | 0.0781 | 1.22 | 0.351 | 54.2 | ~664 | – | – | – | EC50 (human Claudin18.2 [8]): 18 nM
2 | humanized antibody 1E9.2-hz11 (antibody, human IgG1, kappa, V domains shown, human IgG1 / kappa) VH: EVQLVESGGGLVKPGGSLRLSCAASGFSFSNSAMSWVRQAPGKGLEWVSTISSGDSYTYYADSVKGRFTISRDNAKNSLYLQMNSLRAEDTAVYYCARQGYGNALDYWGQGTLVTVSS VL: DIVMTQSPDSLAVSLGERATINCKSSQSLLNSGNQKNYLTWYQQKPGQPPKLLIYWSSTRESGVPDRFSGSGSGTDFTLTISSLQAEDFAVYYCQNDYYYPLTFGGGTKVEIKR | – | 0.1 | – | – | – | 0.0528 | 0.00359 | 0.00239 | 0.134 | 0.041 | 60.2 | 0.413 | no binding (tested: 1000 nM) | 0.09 | 0.8 | Max MFI (human Claudin18.2 [11]): 1.13e+07 MFI; CDC activity on HEK293T-Claudin 18.2 cells, fold against IMAB362 (human Claudin18.2 [13]): 3.5 fold
3 | humanized antibody 2C6.9-hz21 (antibody, human IgG1, kappa, V domains shown, human IgG1 / kappa; also called 2C6.9.2hz21) VH: QVQLQESGPGLVKPSETLSLTCTVSGFSLTRYGVSWIRQPPGKGLEWIGVIWGEGNTNYNPSLKSRVTISKDSSKSQVSLKLSSVTAADTAVYYCARVNFGNALDYWGQGTLVTVSS VL: DIVMTQSPDSLAVSLGERATINCKSSQSLLNSGNQKNYLTWYQQKPGQPPKLLIYWASTRDSGVPDRFSGSGSGTDFTLTISSLQAEDVAVYYCQNDFIFPLTFGGGTKVEIKR | 0.12 | – | 0.0677 | 1.36 | 5.77 | – | – | – | – | – | – | – | no binding (tested: 1000 nM) | 0.18 | 0.8 | –
4 | humanized antibody 2C6.9-hz11 (antibody, human IgG1, kappa, V domains shown, Human IgG1 / kappa constant regions; also called 2C6.9.2hz11) VH: QVQLQESGPGLVKPSETLSLTCTVSGFSLTRYGVSWIRQPPGKGLEWIGVIWGDGNTNYNPSLKSRVTISKDSSKSQVSLKLSSVTAADTAVYYCARVNFGNALDYWGQGTLVTVSS VL: DIVMTQSPDSLAVSLGERATINCKSSQSLLNSGNQKNYLTWYQQKPGQPPKLLIYWASTRDSGVPDRFSGSGSGTDFTLTISSLQAEDVAVYYCQNDFIFPLTFGGGTKVEIKR | – | – | – | – | – | – | – | – | – | – | – | – | – | 0.16 | 0.8 | –
5 | mouse antibody 2C6.9 (antibody, V domains shown, Purified from hybridoma; also called 2C6.9.2) VH: QVQLKESGPGLVAPSQSLSITCTVSGFSLTRYGVSWVRQPPGKGLEWLGVIWGDGNTNFHSFLKSRLSISKDSSKSQVFLKLNSLQTDDTATYYCARVNFGNALDYWGQGTSVTVSS VL: DIVMTQSPSSLTVTAGEEVTMSCKSSQSLLNSGNQKNYLTWYQQKPGQPPKLLIYWASTRDSGVPDRFTGSGSGTDFTLTISSVQSEDLAVYYCQNDFIFPLTFGAGTKLELK | – | – | – | – | – | – | – | – | – | – | – | – | – | – | – | EC50 (human Claudin18.2 [14]): 10.6 nM; Max MFI (human Claudin18.2 [14]): 6.11e+06 MFI; binding result (human Claudin18.1 [15]): no binding
